What was measured:
Assay in all cases: cell-based or functional assay
Halo-LMO2 (human) = Halo-LMO2 (human) (UniProt P25791)
Halo-TAL1(F238D) (human) = Halo-TAL1(F238D) (human) (UniProt P17542)
Halo-LYL1(F201D) (human) = Halo-LYL1(F201D) (human) (UniProt P12980)
Halo-TAL1 (human) = Halo-TAL1 (human) (UniProt P17542)
Halo-LYL1 (human) = Halo-LYL1 (human) (UniProt P12980)

Chain of UniProt P25791 (P25791 whole entry): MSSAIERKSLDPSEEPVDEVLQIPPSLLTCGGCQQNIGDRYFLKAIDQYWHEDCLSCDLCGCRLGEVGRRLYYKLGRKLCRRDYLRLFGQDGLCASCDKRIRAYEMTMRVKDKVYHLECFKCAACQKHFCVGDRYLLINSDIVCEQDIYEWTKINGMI

| Halo-LMO2 t1/2, HaloLife pulse chase in Jurkat cells (6.6 hours without co-expression) (Halo-LMO2 (human)) [h] | Halo-TAL1(F238D) t1/2 with HA-LDB1 co-expressed, HaloLife assay (Halo-TAL1(F238D) (human)) [h] | Halo-LYL1(F201D) t1/2 with HA-LDB1 co-expressed, HaloLife assay (Halo-LYL1(F201D) (human)) [h] | Halo-TAL1 t1/2 with HA-LDB1 co-expressed in the presence of LMO2, HaloLife assay (Halo-TAL1 (human)) [h] | Halo-LYL1 t1/2 with HA-LDB1 co-expressed in the presence of LMO2, HaloLife assay (Halo-LYL1 (human)) [h] | Substance |
| --- | --- | --- | --- | --- | --- |
| 20.6 | 10.7 | 3.7 | 19.9 | 20.5 | HA-LDB1 (from UniProt Q86U70 1-375) |
| 4 | – | – | – | – | HA-LDB1ΔLID (from UniProt Q86U70 1-375) |

From US20230242903A1
